Reference: the supplement of paper PMC10567573

B1: RSPH3 (parent)
chain: FIPAKTGKDVATQILEGELFDFDL

Variants of: B1
Assay: protein stability index of a GFP-peptide fusion (GPS, HEK-293T) (PSI 1-6); higher = more stable
Details: c terminus: a fixed tail appended
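Also: lentivirally expressed fusions sorted by FACS into six bins by GFP to DsRed ratio, PSI derived from sequencing read proportions per bin multiplied by bin number.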

Protein stability index of substitutions, site by site:
E18: W 1.95; R 2.46; Q 2.06; K 2.2; M 2.73; D 2.04; I 2.6; C 2.17; V 2.46; N 2.38; P 1.87; L 2.42; A 1.74; F 3.44
I14: P 2.21; V 2.2; Q 1.79; N 1.57; F 1.74; Y 2.47; A 2.07; M 2.75; K 1.72; G 1.49; D 2.94; H 2.05; R 1.55
D23: M 1.42; F 1.34; V 1.59; Y 2.24; I 1.24; C 2.08; N 1.84; G 2.02; E 1.89; H 1.87; T 2.24; A 2.12; Q 1.99; S 2; P 2.08
T12: Q 1.92; K 1.49; Y 1.92; F 2.73; W 3.27; D 1.56; I 1.85; H 1.43; S 1.82; V 2.98
Q13: E 1.65; I 2.43; M 1.67; G 2.65; P 1.95; Y 2.09; H 2.62; D 2.08; A 1.43; S 2.32; C 2.9; T 1.99; W 1.95; F 2.07
T6: C 1.29; Y 1.64; D 2.46; R 1.71; V 1.6; S 1.71; N 1.91; K 2.22; F 2.08; G 2.12; I 2.53; W 1.9; A 2; P 1.42
L24: N 2.43; G 2.75; K 2.79; E 2.78; Y 1.75; W 3.71; D 3.04; C 2.36; Q 2.7; P 2.47; S 2.36
G7: K 2.03; Q 1.97; L 2.12; C 1.79; M 1.43; N 1.85; E 2.08; H 2.08; D 2.46; P 2.82; R 1.82; Y 1.88; T 1.77
F1: N 4.98; R 4.15; M 3.93; H 4.32; K 4.24; E 5.01; S 4.66; D 4.77; I 3.89; A 4.14; C 3.55; P 4.33; Q 4.69; G 4.84; V 3.54
A4: V 2.28; P 1.55; G 2.48; W 1.6; N 2.35; K 1.9; D 2.25; C 2.08; E 2.51; Q 2.05; F 2.33; T 1.96; H 1.62; S 1.64; Y 1.54
E16: S 2.76; H 1.32; C 2.32; V 2.04; N 2.34; W 2.07; F 3.82; A 1.46; I 2.24; K 2.11; R 2.46; M 3.38; Q 1.7; T 1.63; G 2.34
K8: L 2.44; A 2.13; Q 2.1; V 2.52; E 2.43; T 1.6; M 1.63; D 2.22; N 2.06; G 1.71; H 1.9; Y 2.27; R 2.37; F 1.32; C 2.58
I2: N 2.83; E 4.16; Q 3.04; L 3.02; P 3.04; C 1.55; T 2.85; W 2.3; M 3.26; G 3.73; H 2.02; A 1.79; Y 2.96; D 4.39; V 2.26; F 2.86; S 2.84
V10: F 1.9; M 1.58; A 1.84; K 1.54; P 1.61; C 1.67; E 2.52; D 2.28; Y 1.99; W 2.75; G 1.98; L 2.63; I 2.95; R 1.58; T 2.08; H 1.82; N 2.12; Q 1.82
P3: S 2.56; T 2.24; D 2.63; R 1.94; Q 2.5; E 2.83; Y 1.52; V 1.59; M 1.6; A 2.27; G 2.5; I 1.97; C 1.72; N 2.24; H 1.85; W 2.43
K5: G 1.97; E 2.95; D 2.66; M 1.87; W 1.57; I 1.63; L 1.85; T 2.15; N 2.71; Y 1.88; S 2.01; R 1.75; F 2.46; A 1.77
D9: I 1.42; G 2.23; Y 2.06; A 1.25; K 1.65; Q 1.68; V 2.29; W 3.31; S 1.82; C 2.43; H 2.03; P 1.78
D21: L 3; G 2.24; C 2.71; K 1.96; F 2.45; M 2.98; A 2.33; R 1.8; Y 2.78; H 1.79; S 2.54; T 3.06; Q 1.53; N 1.53
F22: S 2.86; Y 2.12; W 1.91; R 2.42; L 1.98; G 2.81; N 2.87; T 2.67; C 1.84; A 2.31; D 3.7; H 2.56; Q 2.84
A11: E 2.35; T 1.91; R 2.2; C 2; Q 1.73; N 1.68; V 1.94; I 2; Y 4.25; D 2.48; M 1.53; K 2.24; L 1.27
L15: E 2.79; S 2.03; H 2.12; F 2.18; Y 1.76; A 1.74; K 2.07; T 1.66; P 2.02; D 2.58; I 1.87; M 2.03; C 1.85
F20: H 1.59; G 1.84; A 2.47; N 2.76; P 2.37; Y 2.01; I 1.72; W 2.26; T 2.13; V 2.71; M 1.88
G17: E 3; V 2.75; F 2.72; M 1.71; C 2.54; K 1.93; T 2.11; S 1.56; D 1.75; Y 2.06; P 1.37; A 2.14; W 1.95; R 2.15; L 1.48; N 1.32; I 2.31
L19: R 1.6; T 2.28; K 2.21; Y 2.02; Q 1.66; C 1.83; S 1.98; M 1.83; P 1.98; I 2.05; N 1.93; F 1.7
